This passage reports stoichiometry N results from article PMC2712960.

Experiment [1] deals with b6f complex with cytochrome b6 C35V (C. reinhardtii (endogenous)) (UniProt P23577). As to the kind of experiment: native gel or EMSA.
For experiment [2], the target named is b6f complex (monomer of 140 kD) (C. reinhardtii (endogenous)) (UniProt P23577). As to the kind of experiment: native gel or EMSA. Background: Mobility shift assays separate free from complexed probe on a gel.

Usually stoichiometry N stands for a count of units in the complex or per binding partner.

For “b6f complex with cytochrome b6 C35V (from UniProt P23577 32-317; Q00471 1-215; P23230 1-160)”, in experiment [1], the stoichiometry N amounted to 2.

In the case of “b6f complex (monomer of 140 kD) (from UniProt P23577 32-317; Q00471 1-215; P23230 1-160)”, in experiment [2], the stoichiometry N amounted to 2.
